According to patent US20090123572:

T1: recombinant squamous cell carcinoma antigen 1 (SCCA-1), P29508
T1 chain: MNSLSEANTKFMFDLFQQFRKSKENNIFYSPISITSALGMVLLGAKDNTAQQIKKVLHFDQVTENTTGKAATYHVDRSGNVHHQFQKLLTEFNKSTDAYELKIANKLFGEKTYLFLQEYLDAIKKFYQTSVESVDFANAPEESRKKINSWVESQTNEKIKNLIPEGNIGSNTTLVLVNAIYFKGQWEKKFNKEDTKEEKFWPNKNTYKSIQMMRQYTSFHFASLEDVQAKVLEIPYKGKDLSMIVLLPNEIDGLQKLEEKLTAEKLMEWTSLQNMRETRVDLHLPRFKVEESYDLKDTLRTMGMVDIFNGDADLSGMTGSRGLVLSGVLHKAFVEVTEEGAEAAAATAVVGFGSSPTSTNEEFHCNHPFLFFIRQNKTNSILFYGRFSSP

T2: recombinant ICAD protein, O00273
T2 chain: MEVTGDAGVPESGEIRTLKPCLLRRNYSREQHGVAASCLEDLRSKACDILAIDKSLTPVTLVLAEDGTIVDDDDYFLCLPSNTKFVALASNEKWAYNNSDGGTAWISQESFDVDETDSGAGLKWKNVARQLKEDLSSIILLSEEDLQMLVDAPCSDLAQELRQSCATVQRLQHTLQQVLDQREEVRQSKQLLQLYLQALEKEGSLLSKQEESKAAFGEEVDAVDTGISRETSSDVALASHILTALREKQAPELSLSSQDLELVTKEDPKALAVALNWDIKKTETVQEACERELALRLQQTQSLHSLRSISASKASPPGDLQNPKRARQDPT

B1: recombinant caspase-7 (protein)
chain: AKPDRSSFVPSLFSKKKKNVTMRSIKTTRDRVPTYQYNMNFEKLGKCIIINNKNFDKVTGMGVRNGTDKDAEALFKCFRSLGFDVIVYNDCSCAKMQDLLKKASEEDHTNAACFACILLSHGEENVIYGKDGVTPIKDLTAHFRGDRCKTLLEKPKLFFIQACRGTELDDGIQADSGPINDTDANPRYKIPVEADFLFAYSTVPGYYSWRSPGRGSWFVQALCSILEEHGKDLEIMQILTRVNDRVARHFESQSDDPHFHEKKQIPCVVSMLTKELYFSQ
B2: recombinant caspase-8 (protein)
chain: SESQTLDKVYQMKSKPRGYCLIINNHNFAKAREKVPKLHSIRDRNGTHLDAGALTTTFEELHFEIKPHDDCTVEQIYEILKIYQLMDHSNMDCFICCILSHGDKGIIYGTDGQEAPIYELTSQFTGLKCPSLAGKPKVFFIQACQGDNYQKGIPVETDSEEQPYLEMDLSSPQTRYIPDEADFLLGMATVNNCVSYRNPAEGTWYIQSLCQSLRERCPRGDDILTILTEVNYEVSNKDDKKNMGKQMPQPTFTLRKKLVFPSD
B3: recombinant caspase-9 (protein)
chain: GALESLRGNADLAYILSMEPCGHCLIINNVNFCRESGLRTRTGSNIDCEKLRRRFSSLHFMVEVKGDLTAKKMVLALLELAQQDHGALDCCVVVILSHGCQASHLQFPGAVYGTDGCPVSVEKIVNIFNGTSCPSLGGKPKLFFIQACGGEQKDHGFEVASTSPEDESPGSNPEPDATPFQEGLRTFDQLDAISSLPTPSDIFVSYSTFPGFVSWRDPKSGSWYVETLDDIFEQWAHSEDLQSLLLRVANAVSVKGIYKQMPGCFNFLRKKLFFKTS
B4: recombinant caspase-10 (protein)
chain: VKTFLEALPQESWQNKHAGSNGNRATNGAPSLVSRGMQGASANTLNSETSTKRAAVYRMNRNHRGLCVIVNNHSFTSLKDRQGTHKDAEILSHVFQWLGFTVHIHNNVTKVEMEMVLQKQKCNPAHADGDCFVFCILTHGRFGAVYSSDEALIPIREIMSHFTALQCPRLAEKPKLFFIQACQGEEIQPSVSIEADALNPEQAPTSLQDSIPAEADFLLGLATVPGYVSFRHVEEGSWYIQSLCNHLKKLVPRMLKFLEKTMEIRGRKRTVWGAKQISATSLPTAISAQTPRPPMRRWSSVS
B5: recombinant caspase-3 (protein)
chain: SGISLDNSYKMDYPEMGLCIIINNKNFHKSTGMTSRSGTDVDAANLRETFRNLKYEVRNKNDLTREEIVELMRDVSKEDHSKRSSFVCVLLSHGEEGIIFGTNGPVDLKKITNFFRGDRCRSLTGKPKLFIIQACRGTELDCGIETDSGVDDDMACHKIPVEADFLYAYSTAPGYYSWRNSKDGSWFIQSLCAMLKQYADKLEFMHILTRVNRKVATEFESFSFDATFHAKKQIPCIVSMLTKELYFYH
B6: purified caspase-14 from human cornified cells (heterodimer of 17 KDa large subunit and 11 KDa small subunit) (protein)
chain 1: SLEEEKYDMSGARLALILCVTKAREGSEEDLDALEHMFRQLRFESTMKRDPTAEQFQEELEKFQQAIDSREDPVSCAFVVLMAHGREGFLKGEDGEMVKLENLFEALNNKNCQALRAKPKVYIIQACRGEQRDPGETVGGD
chain 2: KDSPQTIPTYTDALHVYSTVEGYIAYRHDQKGSCFIQTLVDVFTKRKGHILELLTEVTRRMAEAELVQEGKARKTNPEIQSTLRKRLYLQ
B7: recombinant caspase-1 (protein)
chain: NPAMPTSSGSEGNVKLCSLEEAQRIWKQKSAEIYPIMDKSSRTRLALIICNEEFDSIPRRTGAEVDITGMTMLLQNLGYSVDVKKNLTASDMTTELEAFAHRPEHKTSDSTFLVFMSHGIREGICGKKHSEQVPDILQLNAIFNMLNTKNCPSLKDKPKVIIIQACRGDSPGVVWFKDSVGVSGNLSLPTTEEFEDDAIKKAHIEKDFIAFCSSTPDNVSWRHPTMGSVFIGRLIEHMQEYACSCDVEEIFRKVRFSFEQPDGRAQMPTTERVTLTRCFYLFPGH
B8: recombinant caspase-2 (protein)
chain: GPVCLQVKPCTPEFYQTHFQLAYRLQSRPRGLALVLSNVHFTGEKELEFRSGGDVDHSTLVTLFKLLGYDVHVLCDQTAQEMQEKLQNFAQLPAHRVTDSCIVALLSHGVEGAIYGVDGKLLQLQEVFQLFDNANCPSLQNKPKMFFIQACRGDETDRGVDQQDGKNHAGSPGCEESDAGKEKLPKMRLPTRSDMICGYACLKGTAAMRNTKRGSWYIEALAQVFSERACDMHVADMLVKVNALIKDREGYAPGTEFHRCKEMSEYCSTLCRHLYLFPGHPPT
B9: recombinant caspase-4 (protein)
chain: QISPNKKAHPNMEAGPPESGESTDALKLCPHEEFLRLCKERAEEIYPIKERNNRTRLALIICNTEFDHLPPRNGADFDITGMKELLEGLDYSVDVEENLTARDMESALRAFATRPEHKSSDSTFLVLMSHGILEGICGTVHDEKKPDVLLYDTIFQIFNNRNCLSLKDKPKVIIVQACRGANRGELWVRDSPASLEVASSQSSENLEEDAVYKTHVEKDFIAFCSSTPHNVSWRDSTMGSIFITQLITCFQKYSWCCHLEEVFRKVQQSFETPRAKAQMPTIERLSMTRYFYLFPGN
B10: recombinant caspase-5 (protein)
chain: DQKITSVKPLLQIEAGPPESAESTNILKLCPREEFLRLCKKNHDEIYPIKKREDRRRLALIICNTKFDHLPARNGAHYDIVGMKRLLQGLGYTVVDEKNLTARDMESVLRAFAARPEHKSSDSTFLVLMSHGILEGICGTAHKKKKPDVLLYDTIFQIFNNRNCLSLKDKPKVIIVQACRGEKHGELWVRDSPASLALISSQSSENLEADSVCKIHEEKDFIAFCSSTPHNVSWRDRTRGSIFITELITCFQKYSCCCHLMEIFRKVQKSFEVPQAKAQMPTIERATLTRDFYLFPGN
B11: recombinant caspase-6 (protein)
chain: AFYKREMFDPAEKYKMDHRRRGIALIFNHERFFWHLTLPERRGTCADRDNLTRRFSDLGFEVKCFNDLKAEELLLKIHEVSTVSHADADCFVCVFLSHGEGNHIYAYDAKIEIQTLTGLFKGDKCHSLVGKPKIFIIQACRGNQHDVPVIPLDVVDNQTEKLDTNITEVDAASVYTLPAGADFLMCYSVAEGYYSHRETVNGSWYIQDLCEMLGKYGSSLEFTELLTLVNRKVSQRRVDFCKDPSAIGKKQVPCFASMLTKKLHFFPKSN

Key:
[1] = biological target: T1, recombinant squamous cell carcinoma …
[2] = biological target: T2, recombinant ICAD protein, O00273

Protein | enzyme activity of recombinant caspase incubated with SCCA-1 (synthetic caspase substrates) [1] | other results
B1 | None of the caspase members (1 to 10) were affected with respect to enzyme activity when recombinant caspase was incubated with SCCA-1 | 
B2 | None of the caspase members (1 to 10) were affected with respect to enzyme activity when recombinant caspase was incubated with SCCA-1 | 
B3 | None of the caspase members (1 to 10) were affected with respect to enzyme activity when recombinant caspase was incubated with SCCA-1 | 
B4 | None of the caspase members (1 to 10) were affected with respect to enzyme activity when recombinant caspase was incubated with SCCA-1 | 
B5 | None of the caspase members (1 to 10) were affected with respect to enzyme activity when recombinant caspase was incubated with SCCA-1 | caspase-3 activity on the synthetic substrate DEVD-MCA or the natural substrate ICAD [1]: SCCA-1 did not inhibit caspase-3 activity using the synthetic substrate DEVD-MCA or the natural substrate ICAD.
B6 |  | ICAD cleavage products (Western blot with FL331 antibody) [2]: Cleavage products were observed at 33 and 27 KDa.; decomposition of recombinant ICAD in the presence of kosmotropic salt (Western blot with anti-ICAD IgG) [2]: since the amount of intact ICAD protein decreases and two major decomposition products increase in the presence of kosmotropic salt, purified caspase-14 demonstrated limited decomposing action on ICAD; fragments formed from ICAD; sequence analysis of the cleavage sites [2]: caspase-14 formed fragments resembling 12 KDa and 35 KDa from ICAD. Sequence analysis indicated identical cleavage sites.; hydrolysis of recombinant ICAD in an ordinary caspase assay buffer (Western blot with anti-ICAD IgG) [2]: purified caspase-14 did not demonstrate any hydrolysis activity on ICAD
B7 | None of the caspase members (1 to 10) were affected with respect to enzyme activity when recombinant caspase was incubated with SCCA-1 | 
B8 | None of the caspase members (1 to 10) were affected with respect to enzyme activity when recombinant caspase was incubated with SCCA-1 | 
B9 | None of the caspase members (1 to 10) were affected with respect to enzyme activity when recombinant caspase was incubated with SCCA-1 | 
B10 | None of the caspase members (1 to 10) were affected with respect to enzyme activity when recombinant caspase was incubated with SCCA-1 | 
B11 | None of the caspase members (1 to 10) were affected with respect to enzyme activity when recombinant caspase was incubated with SCCA-1 | 
